From PMC5209733, “U24 from Roseolovirus interacts strongly with Nedd4 WW Domains” (Scientific Reports, 2017)
Non-standard residues stand in square brackets, D forms with d. No end group written: not given here. pT = C[C@@H](OP(=O)(O)O)[C@H](N)C(=O)O

B1: pU24-6A peptide (15-mer, N-terminus of U24 from HHV-6A phosphorylated at Thr6) (peptide)
peptide: MDPPR[pT]PPPSYSEVL
notes: U24 protein of Human Herpes Virus type 6A (HHV-6A), 15-mer of the N-terminus with phospho-threonine at Thr6; source: purified peptide
B2: GST-hNedd4L-WW3* (third WW domain of human Nedd4-like protein fused to the C-terminus of GST) (domain or fragment)
chain: QSFLPPGWEMRIAPNGRPFFIDHNTKTTTWEDPRLKFPVHMRSK
notes: Nedd4-like protein (Nedd4L), human, cDNA clone KIAA0439, third WW domain (WW3*); Cloned into BamHI and XhoI sites of pGEX-4T2; source: E. coli BL21(DE3), purified (Glutathione Sepharose 4B, eluted with glutathione); not shown: GST, N-terminal, kept
B3: GST-rNedd4-WW3/4 (third WW domain of rat Nedd4 fused to the C-terminus of GST) (domain or fragment)
chain: PVDSNDLGPLPPGWEERTHTDGRVFFINHNIKKTQWEDPRMQNVAITG
notes: Nedd4 E3 ubiquitin ligase, rat, third WW domain (WW3/4, homologue of the fourth WW domain in human); Plasmid was a gift from J. D. Forman-Kay; source: E. coli BL21(DE3), purified (Glutathione Sepharose 4B, eluted with glutathione); not shown: GST, N-terminal, kept
B4: U24-6A peptide (15-mer, N-terminus of U24 from HHV-6A) (peptide)
peptide: MDPPRTPPPSYSEVL
notes: U24 protein of Human Herpes Virus type 6A (HHV-6A), first 15 residues; source: purified peptide

Experiments:
[1] = molecular target: T1, rNedd4-WW3/4 domain (third WW domain of rat Nedd4, GST tag removed) (rat, UniProt Q62940 452-499); experiment: ITC; peptide titrated into the cleaved WW domain (40 to 150 uM) in the cell; 10 mM sodium phosphate, pH 7.4, 25 °C; MicroCal VP-ITC; bimolecular interaction model; three runs (further runs with 100 mM and 500 mM NaCl told in words only); settings: both partners purified
T1 construct: Nedd4 E3 ubiquitin ligase, rat, third WW domain (WW3/4, homologue of the fourth WW domain in human); Thrombin cleavage may leave vector residues at the N-terminus (surmised); source: E. coli BL21(DE3), purified (Glutathione Sepharose 4B, thrombin cleavage on the resin); 15N-labelled in M9 medium for NMR; not shown: GST, N-terminal, cleaved

[2] = molecular target: T2, U24-6A protein (recombinant full length U24 from HHV-6A) (Human Herpes Virus type 6A (HHV-6A), UniProt Q69559 1-87); experiment: pull-down; GST-Nedd4 WW domain (1 to 2 nmole) immobilised on 20 uL Glutathione Sepharose 4B resin, incubated 1 hour at 4 °C with U24 protein in pull down buffer (20 mM KH2PO4, 75 mM NaCl, 0.5% Triton X-100, pH 7.4; 1 mM DTT for U24-7); SDS-PAGE, silver stain; settings: both partners purified
T2 construct: U24 protein of Human Herpes Virus type 6A (HHV-6A), full length
T2 sequence: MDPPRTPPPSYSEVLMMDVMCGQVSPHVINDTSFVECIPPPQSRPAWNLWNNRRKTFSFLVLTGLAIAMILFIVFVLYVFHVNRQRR

Binder | Kd [1] | dH [1] | binding result [2]
B1 | 13.5 µM | -54 kJ/mol | –
B2 | – | – | binds
B3 | – | – | binds
B4 | 43 µM | -46 kJ/mol | –
